The source of these data is US9616120B2, “Monoclonal antibodies directed to CD20” (VET THERAPEUTICS, INC., priority 2010, dated 2017).

For this test, the system named is lymphoma cells. Briefly: MTT proliferation assay on lymphoma cells. The test is classed as cell-based. To be noted: 72 h; for percentage of reduction of cell proliferation, Doxorubicin 6.6 nM: Mab 10 ug/mL plus Doxorubicin 6.6 nM; for percentage of reduction of cell proliferation, Doxorubicin 66 nM: Mab 10 ug/mL plus Doxorubicin 66 nM; for percentage of reduction of cell proliferation, Doxorubicin 0 nM: Mab 10 ug/mL, triplicate. The protocol: Lymphoma cells are grown in RPMI medium with FBS 10% in 5% carbon dioxide (CO2) at 37° C. Cells are seeded at 5,000 cells/well in 96-well plates in medium with 5% FBS. Cells are treated with the antibody variants or isotype controls (10 μg/ml) and incubated for 72 h at 37° C. in a CO2 incubator. Ten (10) μL, MTT solution is added to each well and incubated at 37° C. for 4 h according to the manufacturer's instruction (Trevigen). Optical density (OD) is then measured at 490 nm and data is presented as percentage of reduction of cell proliferation of triplicate measurements. The data in Table 5 illustrate that the antibody variants have an anti-proliferative effect on lymphoma cells. Furthermore, the antibody variants sensitize the lymphoma cell line to Doxorubicin, a cytotoxic drug commonly used in the treatment of cancer for companion animals.
The antibody variants of the present invention are further tested for their ability to alter proliferation of lymphoma cells. Cell assays are conducted as described in the example above. Data is presented in Table 6 as percentage of reduction of cell proliferation of triplicate measurements.
In general terms: Formazan colour is commonly taken as a measure of viable cells.

B1: VET 135 X VET 260: antibody variant: light chain VET135 (CD20-2 LC + VET101) with heavy chain VET260 (VET259 CD20-2 HC FR4T + VET201) (antibody)
heavy: QVQLQQSRAELVRPGASVTLSCKPSGYTFTDYEVHWVKQTPVHGLEWIGAIDPETGGTADNQKFKGKAILTADKSSSTAYMELRSLTSEDSAVYYCTNFVDVWGTGTTVTVSSASTTAPSVFPLAPSCGSQSGSTVALACLVSGYFPEPVTVSWNSGSLTSGVHTFPSVLQSSGLYSLSSMVTVPSSRWPSETFTCNVAHPASKTKVDKPVPKRENGRVPRPPDCPKCPAPEMLGGPSVFIFPPKPKDTLLIARTPEVTCVVVDLDPEDPEVQISWFVDGKQMQTAKTQPREEQFNGTYRVVSVLPIGHQDWLKGKQFTCKVNNKALPSPIERTISKARGQAHQPSVYVLPPSREELSKNTVSLTCLIKDFFPPDIDVEWQSNGQQEPESKYRTTPPQLDEDGSYFLYSKLSVDKSRWQRGDTFICAVMHEALHNHYTQKSLSHSPGK
light: DVVMSQSPSSLAVSVGEKVTMSCKSSQSLLYSGNQKNYLAWYQQKPGQSPRLLIYWASTRESGVPDRFTGSGSGTDFTLTISSVKAEDLAVFYCQQYYNYPLTFGAGTKLELKGQPKASPSVTLFPPSSEELGANKATLVCLISDFYPSGVTVAWKADGSPITQGVETTKPSKQSNNKYAASSYLSLTPDKWKSHSSFSCLVTHEGSTVEKKVAPAECS
With B1, the “percentage of reduction of cell proliferation, Doxorubicin 6.6 nM” value was determined as 58.63%; the “percentage of reduction of cell proliferation, Doxorubicin 66 nM” value came to 64.88%; the “percentage of reduction of cell proliferation, Doxorubicin 0 nM” value was 40.48%.

B2: VET 133 X VET 257: antibody variant: light chain VET133 (VET132 CD20-1 LC + VET101) with heavy chain VET257 (VET256 CD20-1 HC + VET201) (antibody)
heavy: EIQLQQSGAELVKPGASVKISCKASGYTFTDYYINWVKQRPGQGLEWIGKIGPGSGRTYYNEKFKGKATLTADKSSSTAYIQISSLTSEDSAVYFCAVLSWGQGTTLTVSSASTTAPSVFPLAPSCGSQSGSTVALACLVSGYFPEPVTVSWNSGSLTSGVHTFPSVLQSSGLYSLSSMVTVPSSRWPSETFTCNVAHPASKTKVDKPVPKRENGRVPRPPDCPKCPAPEMLGGPSVFIFPPKPKDTLLIARTPEVTCVVVDLDPEDPEVQISWFVDGKQMQTAKTQPREEQFNGTYRVVSVLPIGHQDWLKGKQFTCKVNNKALPSPIERTISKARGQAHQPSVYVLPPSREELSKNTVSLTCLIKDFFPPDIDVEWQSNGQQEPESKYRTTPPQLDEDGSYFLYSKLSVDKSRWQRGDTFICAVMHEALHNHYTQKSLSHSPGK
light: DVQITQTPLTLSVTFGQPASISCKSSQSLLKSDGRTYLNWLLQRPGQSPKRLLYLVSKLDSGVPDRFTGSGSGTDFTLKISRVEAEDLGVYYCWQGTHFPQTFGGGTKLEIKGQPKASPSVTLFPPSSEELGANKATLVCLISDFYPSGVTVAWKADGSPITQGVETTKPSKQSNNKYAASSYLSLTPDKWKSHSSFSCLVTHEGSTVEKKVAPAECS
For B2, the “percentage of reduction of cell proliferation, Doxorubicin 6.6 nM” value is 65.77%; the “percentage of reduction of cell proliferation, Doxorubicin 66 nM” value came to 76.79%; the “percentage of reduction of cell proliferation, Doxorubicin 0 nM” value stood at 59.82%.
